Measured values from PMC6416349.

Key:
Test in all cases: SPR; Biacore 3000, 25 °C; fungal protein immobilised on a CM5 chip by amine coupling (300 RU Eno1 and Mp65, 360 RU Als3); RgpA 10-100 nM injected at 20 µl/min; 10 mM HEPES, 150 mM NaCl, 0.005% surfactant, pH 7.4; global fit, 1:1 Langmuir model with baseline drift
[1] = target: C. albicans agglutinin-like sequence protein 3 (Als3), isolated from the hyphal cell wall (C. albicans) (UniProt Q59L12)
[2] = target: C. albicans cell wall mannoprotein 65 (Mp65) (C. albicans) (UniProt Q59XX2)
[3] = target: C. albicans enolase 1 (Eno1) (C. albicans) (UniProt P30575)
Chain of UniProt P30575 (P30575 whole entry): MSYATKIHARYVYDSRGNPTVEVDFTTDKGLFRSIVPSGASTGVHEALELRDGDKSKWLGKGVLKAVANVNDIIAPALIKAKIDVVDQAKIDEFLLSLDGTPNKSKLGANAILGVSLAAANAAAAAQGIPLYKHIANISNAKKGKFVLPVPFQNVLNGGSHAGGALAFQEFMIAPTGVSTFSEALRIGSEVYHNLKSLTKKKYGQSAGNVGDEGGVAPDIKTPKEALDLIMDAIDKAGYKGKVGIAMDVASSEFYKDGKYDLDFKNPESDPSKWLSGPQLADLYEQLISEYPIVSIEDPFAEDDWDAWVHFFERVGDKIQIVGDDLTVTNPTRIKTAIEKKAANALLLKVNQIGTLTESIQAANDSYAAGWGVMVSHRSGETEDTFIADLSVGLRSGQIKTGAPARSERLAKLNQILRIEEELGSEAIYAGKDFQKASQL

Chain of UniProt Q59L12 (Q59L12 18-1134): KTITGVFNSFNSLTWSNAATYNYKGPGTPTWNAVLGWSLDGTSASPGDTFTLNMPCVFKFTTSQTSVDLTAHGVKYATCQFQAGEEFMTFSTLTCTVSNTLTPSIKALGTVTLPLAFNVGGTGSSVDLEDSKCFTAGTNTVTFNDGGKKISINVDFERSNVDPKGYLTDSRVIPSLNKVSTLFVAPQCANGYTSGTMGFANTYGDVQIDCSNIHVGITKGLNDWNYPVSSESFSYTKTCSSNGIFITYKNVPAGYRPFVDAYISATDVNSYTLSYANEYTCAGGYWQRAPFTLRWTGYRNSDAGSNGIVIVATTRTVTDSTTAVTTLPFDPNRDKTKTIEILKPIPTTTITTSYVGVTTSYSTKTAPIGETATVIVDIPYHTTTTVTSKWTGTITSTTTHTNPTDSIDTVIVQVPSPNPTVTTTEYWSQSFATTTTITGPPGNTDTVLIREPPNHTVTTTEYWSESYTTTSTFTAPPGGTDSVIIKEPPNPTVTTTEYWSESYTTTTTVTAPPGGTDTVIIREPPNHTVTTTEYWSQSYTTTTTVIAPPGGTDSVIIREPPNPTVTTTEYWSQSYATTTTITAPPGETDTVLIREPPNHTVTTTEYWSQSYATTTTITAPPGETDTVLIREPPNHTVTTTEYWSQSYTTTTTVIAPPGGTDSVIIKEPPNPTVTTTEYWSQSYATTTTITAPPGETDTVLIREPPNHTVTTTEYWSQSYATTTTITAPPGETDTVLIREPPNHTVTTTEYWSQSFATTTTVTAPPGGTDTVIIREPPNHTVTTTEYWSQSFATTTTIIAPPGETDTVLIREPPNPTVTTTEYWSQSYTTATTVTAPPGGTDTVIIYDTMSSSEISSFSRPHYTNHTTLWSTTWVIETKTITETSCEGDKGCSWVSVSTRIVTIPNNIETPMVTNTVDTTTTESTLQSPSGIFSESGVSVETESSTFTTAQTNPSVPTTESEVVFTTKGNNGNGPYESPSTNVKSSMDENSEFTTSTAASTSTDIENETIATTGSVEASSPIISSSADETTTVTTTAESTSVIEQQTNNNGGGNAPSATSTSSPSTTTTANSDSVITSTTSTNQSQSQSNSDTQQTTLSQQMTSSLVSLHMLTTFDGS
Chain of UniProt Q59XX2 (Q59XX2 33-378): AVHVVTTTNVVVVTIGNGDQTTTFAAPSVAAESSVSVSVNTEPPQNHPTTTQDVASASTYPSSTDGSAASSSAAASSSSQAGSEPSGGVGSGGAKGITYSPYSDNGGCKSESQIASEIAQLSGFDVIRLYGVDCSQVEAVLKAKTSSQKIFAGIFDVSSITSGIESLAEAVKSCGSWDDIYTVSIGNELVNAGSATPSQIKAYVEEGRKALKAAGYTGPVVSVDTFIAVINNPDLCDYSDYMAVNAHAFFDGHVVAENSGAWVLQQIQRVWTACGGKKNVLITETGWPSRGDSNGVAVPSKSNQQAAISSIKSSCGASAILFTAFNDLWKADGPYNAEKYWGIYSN

## P. gingivalis gingipain RgpA (HRgpA) (from UniProt P28784 228-991) (enzyme)
[1]
  Kd: 9.96 nM
[2]
  Kd: 9.44 nM
[3]
  Kd: 2.97 nM
